From patent EP1230350B1, “SITE-DIRECTED MUTAGENESIS OF ESCHERICHIA COLI PHYTASE” (CORNELL RESEARCH FOUNDATION, INC., priority 1999, dated 2001)
Marks after values point to notes of the source that are not given here.

Experiments:
Test in all cases: Enzyme kinetics of acid phosphatase/phytase (pNPP and sodium phytate as substrates)
[1] = target: T1, Escherichia coli acid phosphatase/phytase (appA) Mutant U (construct E2P2P3K2: C200N, D207N, S211N), SEQ. ID. No. 3, expressed in Pichia pastoris (Escherichia coli, UniProt P07102, C200N/D207N/S211N); assay type: biochemical
T1 construct: The coding region starts at the codon 20 and ends at the codon 432; alpha-factor secretion leader of vector pPICZαA (own knowledge of the vector); made in house; host or cells: Pichia pastoris X33
T1 sequence (P07102 20-432 C200N/D207N/S211N): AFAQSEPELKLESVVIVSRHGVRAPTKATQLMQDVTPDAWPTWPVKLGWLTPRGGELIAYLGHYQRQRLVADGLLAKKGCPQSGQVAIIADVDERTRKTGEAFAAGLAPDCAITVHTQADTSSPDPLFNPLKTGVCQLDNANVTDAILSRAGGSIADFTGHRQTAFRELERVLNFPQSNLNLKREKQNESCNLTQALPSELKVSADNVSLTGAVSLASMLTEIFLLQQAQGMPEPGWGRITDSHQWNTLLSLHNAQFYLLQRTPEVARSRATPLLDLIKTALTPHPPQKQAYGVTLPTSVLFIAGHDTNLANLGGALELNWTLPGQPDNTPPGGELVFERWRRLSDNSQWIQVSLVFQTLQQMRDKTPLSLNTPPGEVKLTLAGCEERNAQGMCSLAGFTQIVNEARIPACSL
Protocol: The expressed r-AppA and mutant enzymes in the medium supernatant were subjected to a two-step ammonium sulfate precipitation (25% and 75%) as previously described (Rodriguez, E. et al., Biochem. Biophys. Res. Commun. 257:117-23 (1999)). The suspension of the first round was centrifuged at 4°C, 25,000 x g for 20 min. The pellet of the second round was suspended in 10 ml and dialyzed overnight against 25 mM Tris-HCl, pH 7. After dialysis, the protein extract was loaded onto a DEAE (diethylaminoethyl)-Sepharose column (Sigma, St. Louis, MO) equilibrated with 25 mM Tris-HCl, pH 7. The bound protein was eluted with 1 M NaCl in 25 mM Tris-CH1, pH 7. […] Phytase activity was measured using sodium phytate as the substrate (Rodriguez, E. et al., Biochem. Biophys. Res. Commun. 257:117-23 (1999); Piddington, C.S. et al., Gene 133:55-62 (1993)). […] Free inorganic phosphorus was measured at 820 nm after 0.2 ml of the sample was mixed with 1.8 ml of H2O and 2 ml of a solution containing 0.6 M H2SO4, 2% ascorbic acid, and 0.5% ammonium molybdate, followed by incubation for 20 min at 50°C. […] The released p-nitrophenol was measured at 405 nm after 0.1 ml of the sample was mixed with 0.9 ml of 1 M NaOH and incubated for 10 min. […] After the samples were cooled on ice for 30 min, their remaining phytase activies were measured as described above. […]

[2] = substrate: O=P(O)(O)OC1C(OP(=O)(O)O)C(OP(=O)(O)O)C(OP(=O)(O)O)C(OP(=O)(O)O)C1OP(=O)(O)O; assay type: biochemical, Escherichia coli; conditions: 0.25 M glycine-HCl, pH 2.5, 37°C, Lineweaver-Burk plot
Protocol: (§1) The expressed r-AppA and mutant enzymes in the medium supernatant were subjected to a two-step ammonium sulfate precipitation (25% and 75%) as previously described (Rodriguez, E. et al., Biochem. Biophys. Res. Commun. 257:117-23 (1999)). The suspension of the first round was centrifuged at 4°C, 25,000 x g for 20 min. The pellet of the second round was suspended in 10 ml and dialyzed overnight against 25 mM Tris-HCl, pH 7. After dialysis, the protein extract was loaded onto a DEAE (diethylaminoethyl)-Sepharose column (Sigma, St. Louis, MO) equilibrated with 25 mM Tris-HCl, pH 7. The bound protein was eluted with 1 M NaCl in 25 mM Tris-CH1, pH 7. […] Phytase activity was measured using sodium phytate as the substrate (Rodriguez, E. et al., Biochem. Biophys. Res. Commun. 257:117-23 (1999); Piddington, C.S. et al., Gene 133:55-62 (1993)). The enzyme was diluted in 0.25 M glycine-HCl, pH 2.5, and an equal volume of substrate solution containing 11 mM sodium phytate (Sigma) was added. After incubation of the sample for 15 min at 37°C, the reaction was stopped by addition of an equal volume of 15% trichloroacetic acid. Free inorganic phosphorus was measured at 820 nm after 0.2 ml of the sample was mixed with 1.8 ml of H2O and 2 ml of a solution containing 0.6 M H2SO4, 2% ascorbic acid, and 0.5% ammonium molybdate, followed by incubation for 20 min at 50°C. One phytase unit was defined as the amount of activity that releases 1 µmol of inorganic phosphorus from sodium phytate per minute at 37°C. The final concentrations of sodium phytate used for the enzyme kinetics were: 0.1, 0.25, 0.5, 0.75, 1, 2.5, 10, and 25 mM. Acid phosphatase activity was assayed using pNPP (Sigma) at a final concentration of 25 mM (Smith, R. et al., Protein Engineerine 5:35-41 (1992)). To 50 µl of enzyme (40 nmol), 850 µl of 250 mM glycine-HCl, pH 2.5, were added. After 5 min of incubation at 37°C, 100 µl of pNPP was added. The released p-nitrophenol was measured at 405 nm after 0.1 ml of the sample was mixed with 0.9 ml of 1 M NaOH and incubated for 10 min. The final concentrations ofpNPP used for the enzyme kinetics were: 0.1, 0.2, 0.75, 1, 2.5, 10, and 25 mM. One unit of acid phosphatase/phytase activity was defined as the amount of enzyme catalyzing the formation of 1 µmol of p-nitrophenol per minute. Before the thermostability assay, the enzyme (2 mg/ml) was diluted 1:400 in 0.2 M glycine-HCl, pH 2.5. The diluted samples were incubated for 15 min at 25, 55, 80, and 90°C. After the samples were cooled on ice for 30 min, their remaining phytase activies were measured as described above. Deglycosylation of purified enzymes was done by incubating 100 µg of total protein with 0.5 IU endoglycosidase Hf (Endo Hf) for 4 h at 37°C according to the manufacturer's instructions (New England Biolabs, Beverly, MA). Sodium dodecyl sulfate-polyacrylamide gel electrophoresis (SDS-PAGE), 15% (w/v) gel was performed as previously described (Laenunli, U.K., Nature 227:680-85 (1970)). Protein concentrations were determined using the Lowry method (Lowry, O.H. et al., J. Biol. Chem. 193:265-75 (1951)).
(§2) The Km value for pNPP (p-nitrophenyl phosphate) was reduced by one-half and the one for sodium phytate by 70% with Mutant U, versus r-AppA (P < 0.05) (Table 4).

[3] = substrate: O=[N+]([O-])c1ccc(OP(=O)(O)O)cc1; assay type: biochemical, Escherichia coli; conditions: 0.25 M glycine-HCl, pH 2.5, 37°C, Lineweaver-Burk plot
Protocol: as §1, §2

O=P(O)(O)O[C@H]1[C@H](OP(=O)(O)O)[C@@H](OP(=O)(O)O)[C@H](OP(=O)(O)O)[C@@H](OP(=O)(O)O)[C@H]1OP(=O)(O)O [Na-Phytate, sodium phytate]
increase in apparent catalytic efficiency kcat/Km for sodium phytate than that of r-AppA ([1]; Mutant U versus r-AppA): 5.2 fold
Km value for sodium phytate reduced, versus r-AppA ([1]; Mutant U versus r-AppA (P < 0.05)): 70%

B1: Escherichia coli acid phosphatase/phytase (appA) Mutant Y (construct E2A1P2P3K2: A131N, V134N, C200N, D207N, S211N), expressed in Pichia pastoris (Escherichia … (protein)
chain: AFAQSEPELKLESVVIVSRHGVRAPTKATQLMQDVTPDAWPTWPVKLGWLTPRGGELIAYLGHYQRQRLVADGLLAKKGCPQSGQVAIIADVDERTRKTGEAFAAGLAPDCNITNHTQADTSSPDPLFNPLKTGVCQLDNANVTDAILSRAGGSIADFTGHRQTAFRELERVLNFPQSNLNLKREKQNESCNLTQALPSELKVSADNVSLTGAVSLASMLTEIFLLQQAQGMPEPGWGRITDSHQWNTLLSLHNAQFYLLQRTPEVARSRATPLLDLIKTALTPHPPQKQAYGVTLPTSVLFIAGHDTNLANLGGALELNWTLPGQPDNTPPGGELVFERWRRLSDNSQWIQVSLVFQTLQQMRDKTPLSLNTPPGEVKLTLAGCEERNAQGMCSLAGFTQIVNEARIPACSL
notes: The coding region starts at the codon 20 and ends at the codon 432; alpha-factor secretion leader of vector pPICZαA (own knowledge of the vector); made in house; host or cells: Pichia pastoris X33
Km ([2]; other: Mutant Y): 2030 ± 190 µM
kcat ([2]; other: Mutant Y): 3431 ± 41^* min^-1
kcat/Km ([2]; other: Mutant Y): (1.69 ± 0.21) x 10^6* min^-1 M^-1
Km ([3]; other: Mutant Y): 3180 ± 390 µM
kcat ([3]; other: Mutant Y): 787 ± 6.7 min⁻¹
kcat/Km ([3]; other: Mutant Y): (2.5 ± 0.17) x 10^5 min^-1 M^-1

B2: Escherichia coli acid phosphatase/phytase (appA) Mutant U (construct E2P2P3K2: C200N, D207N, S211N), SEQ. ID. No. 3, expressed in Pichia pastoris (Escherichia … (protein)
chain: AFAQSEPELKLESVVIVSRHGVRAPTKATQLMQDVTPDAWPTWPVKLGWLTPRGGELIAYLGHYQRQRLVADGLLAKKGCPQSGQVAIIADVDERTRKTGEAFAAGLAPDCAITVHTQADTSSPDPLFNPLKTGVCQLDNANVTDAILSRAGGSIADFTGHRQTAFRELERVLNFPQSNLNLKREKQNESCNLTQALPSELKVSADNVSLTGAVSLASMLTEIFLLQQAQGMPEPGWGRITDSHQWNTLLSLHNAQFYLLQRTPEVARSRATPLLDLIKTALTPHPPQKQAYGVTLPTSVLFIAGHDTNLANLGGALELNWTLPGQPDNTPPGGELVFERWRRLSDNSQWIQVSLVFQTLQQMRDKTPLSLNTPPGEVKLTLAGCEERNAQGMCSLAGFTQIVNEARIPACSL
notes: as for B1
Km ([2]; other: Mutant U): 580 ± 80 µM
kcat ([2]; other: Mutant U): 4003 ± 56^* min^-1
kcat/Km ([2]; other: Mutant U): (6.90 ± 0.70) x 10^6* min^-1 M^-1
Km ([3]; other: Mutant U): 1860 ± 35000 µM
kcat ([3]; other: Mutant U): 1073 ± 13^* min^-1
kcat/Km ([3]; other: Mutant U): (5.8 ± 0.37) x 10^5* min^-1 M^-1

B3: Escherichia coli acid phosphatase/phytase (appA), wild type r-AppA, SEQ. ID. No. 1, expressed in Pichia pastoris (Escherichia coli K-12) (protein)
chain: AFAQSEPELKLESVVIVSRHGVRAPTKATQLMQDVTPDAWPTWPVKLGWLTPRGGELIAYLGHYQRQRLVADGLLAKKGCPQSGQVAIIADVDERTRKTGEAFAAGLAPDCAITVHTQADTSSPDPLFNPLKTGVCQLDNANVTDAILSRAGGSIADFTGHRQTAFRELERVLNFPQSNLCLKREKQDESCSLTQALPSELKVSADNVSLTGAVSLASMLTEIFLLQQAQGMPEPGWGRITDSHQWNTLLSLHNAQFYLLQRTPEVARSRATPLLDLIKTALTPHPPQKQAYGVTLPTSVLFIAGHDTNLANLGGALELNWTLPGQPDNTPPGGELVFERWRRLSDNSQWIQVSLVFQTLQQMRDKTPLSLNTPPGEVKLTLAGCEERNAQGMCSLAGFTQIVNEARIPACSL
notes: as for B1
Km ([2]; other: r-AppA): 1950 ± 250 µM
kcat ([2]; other: r-AppA): 2148 ± 33 min⁻¹
kcat/Km ([2]; other: r-AppA): (1.11 ± 0.13) x 10^6 min^-1 M^-1
Km ([3]; other: r-AppA): 3660 ± 440 µM
kcat ([3]; other: r-AppA): 752 ± 7.9 min⁻¹
kcat/Km ([3]; other: r-AppA): (2.0 ± 0.18) x 10^5 min^-1 M^-1

B4: Escherichia coli acid phosphatase/phytase (appA) Mutant R (construct E2A1P3K2: A131N, V134N, D207N, S211N), expressed in Pichia pastoris (Escherichia coli … (protein)
chain: AFAQSEPELKLESVVIVSRHGVRAPTKATQLMQDVTPDAWPTWPVKLGWLTPRGGELIAYLGHYQRQRLVADGLLAKKGCPQSGQVAIIADVDERTRKTGEAFAAGLAPDCNITNHTQADTSSPDPLFNPLKTGVCQLDNANVTDAILSRAGGSIADFTGHRQTAFRELERVLNFPQSNLCLKREKQNESCNLTQALPSELKVSADNVSLTGAVSLASMLTEIFLLQQAQGMPEPGWGRITDSHQWNTLLSLHNAQFYLLQRTPEVARSRATPLLDLIKTALTPHPPQKQAYGVTLPTSVLFIAGHDTNLANLGGALELNWTLPGQPDNTPPGGELVFERWRRLSDNSQWIQVSLVFQTLQQMRDKTPLSLNTPPGEVKLTLAGCEERNAQGMCSLAGFTQIVNEARIPACSL
notes: as for B1
Km ([2]; other: Mutant R): 3070 ± 260 µM
kcat ([2]; other: Mutant R): 1657 ± 23^* min^-1
kcat/Km ([2]; other: Mutant R): (0.54 ± 0.09) x 10^6* min^-1 M^-1
Km ([3]; other: Mutant R): 7870 ± 840 µM
kcat ([3]; other: Mutant R): 390 ± 5.9^* min^-1
kcat/Km ([3]; other: Mutant R): (0.5 ± 0.07) x 10^5* min^-1 M^-1
